Laboratory results published in US20240066131A1 (Protagonist Therapeutics, Inc., priority 2020, published 2024).
Starred links: 1 amine or outer side, 2 acyl side, 3 side chain; linkers in the order of their positions; H or OH if unused. Positions of bridges follow the written chain, without caps; N, C: chain ends. Non-standard residues stand in square brackets, D forms with d. Residues, ends and D or L forms follow the SMILES beside them. Groups on a side chain read outwards from the residue. No end group written: not given here. *: point of attachment. bhGly(phenylbutyl) = 3-((4-phenylbutyl)amino)propanoic acid, O=C(CCN(CCCCc1ccccc1)[*:1])[*:2]; Carnitine = carnitine group on the Lys side chain, C[N+](C)(C)C[C@H](O)CC(=O)*; PeptoidIsovaleric Acid = not defined here; Dip = N[C@H](C(=O)O)C(c1ccccc1)c1ccccc1; NH(4-phenylbutyl) = c1ccc(CCCCN*)cc1; Palmitoyl = CCCCCCCCCCCCCCCC(=O)*; β3hF = N[C@H](CC(=O)O)Cc1ccccc1; DMG_N_2ae = not defined here; NMeK = CN[C@@H](CCCCN)C(=O)O; Isovaleryl = CC(C)CC(=O)*; Orn = NCCC[C@H](N)C(=O)O; Dap = NC[C@H](N)C(=O)O; Ahx = NCCCCCC(=O)O

B1: [Isovaleric Acid]-K-T-H-[Dpa]-P-A-I-E-[bhPhe]-[Lys(Ahx_Palm)]-[Lys(Carnitine)]-NH2 (peptide)
peptide: Isovaleryl-KTH[Dip]PAIE[β3hF]K([Ahx-Palmitoyl])K(Carnitine)-NH2
SMILES: CCCCCCCCCCCCCCCC(=O)NCCCCCC(=O)NCCCC[C@H](NC(=O)C[C@H](Cc1ccccc1)NC(=O)[C@H](CCC(=O)O)NC(=O)[C@@H](NC(=O)[C@H](C)NC(=O)[C@@H]1CCCN1C(=O)[C@@H](NC(=O)[C@H](Cc1c[nH]cn1)NC(=O)[C@@H](NC(=O)[C@H](CCCCN)NC(=O)CC(C)C)[C@@H](C)O)C(c1ccccc1)c1ccccc1)[C@@H](C)CC)C(=O)N[C@@H](CCCCNC(=O)C[C@@H](O)C[N+](C)(C)C)C(N)=O
B2: [Isovaleric Acid]-E-T-H-[Dpa]-P-[DMG_N_2ae]-[N-MeLys(Ahx_Palm)]-[bhPhe]-NH2 (peptide)
peptide: Isovaleryl-ETH[Dip]P[DMG_N_2ae][NMeK]([Ahx-Palmitoyl])[β3hF]-NH2
modifications: reading uncertain
B3: [Isovaleric Acid]-K-T-H-[Dpa]-P-[DMG_N_2ae]-E-[bhPhe]-[Lys(Ahx_Palm)]-NH2 (peptide)
peptide: Isovaleryl-KTH[Dip]P[DMG_N_2ae]E[β3hF]K([Ahx-Palmitoyl])-NH2
modifications: reading uncertain
B4: [Isovaleric Acid]-[Orn]-T-H-[Dpa]-P-A-I-[N-MeLys(Ahx_Palm)]-[bhGly(phenylbutyl)] (peptide)
peptide: Isovaleryl-[Orn]TH[Dip]PAI[NMeK]([Ahx-Palmitoyl])[bhGly(phenylbutyl)]
B5: [Isovaleric Acid]-[Dap]-T-H-[Dpa]-P-A-I-[N-MeLys(Ahx_Palm)]-[bhGly(phenylbutyl)] (peptide)
peptide: Isovaleryl-[Dap]TH[Dip]PAI[NMeK]([Ahx-Palmitoyl])[bhGly(phenylbutyl)]
B6: [Isovaleric Acid]-E-T-H-[Dpa]-P-[DMG_N_2ae]-[(D)Lys]-[bhPhe]-[Lys(Ahx_Palm)]-NH2 (peptide)
peptide: XETHXPXXXX
modifications: N-term Isovaleric Acid; Dpa4; DMG_N_2ae6; (D)Lys7; bhPhe8; Lys(Ahx_Palm)9; C-term NH2
B7: [Isovaleric Acid]-E-T-H-[Dpa]-P-[Lys(Ahx_Palm)]-[Phenylbutyl Amine] (peptide)
peptide: XETHXPXX
modifications: N-term Isovaleric Acid; Dpa4; Lys(Ahx_Palm)6; C-term Phenylbutyl Amine
B8: [Isovaleric Acid]-K-T-H-[Dpa]-P-A-[Lys(Carnitine)]-E-[N-MeLys(Ahx_Palm)]-[Phenylbutyl Amine] (peptide)
peptide: Isovaleryl-KTH[Dip]PAK(Carnitine)E[NMeK]([Ahx-Palmitoyl])-{NH(4-phenylbutyl)}
SMILES: CCCCCCCCCCCCCCCC(=O)NCCCCCC(=O)NCCCC[C@@H](C(=O)NCCCCc1ccccc1)N(C)C(=O)[C@H](CCC(=O)O)NC(=O)[C@H](CCCCNC(=O)C[C@@H](O)C[N+](C)(C)C)NC(=O)[C@H](C)NC(=O)[C@@H]1CCCN1C(=O)[C@@H](NC(=O)[C@H](Cc1c[nH]cn1)NC(=O)[C@@H](NC(=O)[C@H](CCCCN)NC(=O)CC(C)C)[C@@H](C)O)C(c1ccccc1)c1ccccc1
B9: Isovaleric Acid-E-T-H-[Dpa]-d[Lys(Gal)]-A-I-[Lys(Ahx_Palm)]-[bhPhe]-NH2 (peptide)
peptide: Isovaleryl-ETH[Dip][dK](Gal)AIK([Ahx-Palmitoyl])[β3hF]-NH2
B10: PeptoidIsovaleric Acid-E-T-H-[Dpa]-P-A-I-[Lys(Ahx_Palm)]-[bhPhe]-NH2 (peptide)
peptide: {PeptoidIsovaleric Acid}-ETH[Dip]PAIK([Ahx-Palmitoyl])[β3hF]-NH2
modifications: reading uncertain
B11: Isovaleric Acid-[Lys(Gal)]-T-H-[Dpa]-P-A-I-[Lys(Ahx_Palm)]-[bhPhe]-NH2 (peptide)
peptide: Isovaleryl-K(Gal)TH[Dip]PAIK([Ahx-Palmitoyl])[β3hF]-NH2
B12: Isovaleric Acid-K-T-H-[Dpa]-P-A-I-[Lys(Ahx_Palm)]-[bhPhe] (peptide)
peptide: Isovaleryl-KTH[Dip]PAIK([Ahx-Palmitoyl])[β3hF]
B13: Isovaleric Acid-E-T-H-[Dpa]-A-A-I-[(D)Lys]-[bhPhe]-[Lys(Ahx_Palm)]-[(D)Lys]-A-NH2 (peptide)
peptide: Isovaleryl-ETH[Dip]AAI[dK][β3hF]K([Ahx-Palmitoyl])[dK]A-NH2
SMILES: CCCCCCCCCCCCCCCC(=O)NCCCCCC(=O)NCCCC[C@H](NC(=O)C[C@H](Cc1ccccc1)NC(=O)[C@@H](CCCCN)NC(=O)[C@@H](NC(=O)[C@H](C)NC(=O)[C@H](C)NC(=O)[C@@H](NC(=O)[C@H](Cc1c[nH]cn1)NC(=O)[C@@H](NC(=O)[C@H](CCC(=O)O)NC(=O)CC(C)C)[C@@H](C)O)C(c1ccccc1)c1ccccc1)[C@@H](C)CC)C(=O)N[C@H](CCCCN)C(=O)N[C@@H](C)C(N)=O
B14: [Lys(IVA(1:1)-T-H-[Dpa]-P-A-I-[Lys(Ahx_Palm)]-bhF(1:2) (peptide)
peptide: K(Isovaleryl)TH[Dip]PAIK([Ahx-Palmitoyl])[bhF]
modifications: also: marks (1:1) at Lys1 and (1:2) at bhF9 not explained
B15: Isovaleric Acid-E-T-H-A-P-A-I-[(D)Lys]-[bhPhe]-[Lys(Ahx_Palm)]-[(D)Lys]-A-NH2 (peptide)
peptide: Isovaleryl-ETHAPAI[dK][β3hF]K([Ahx-Palmitoyl])[dK]A-NH2
SMILES: CCCCCCCCCCCCCCCC(=O)NCCCCCC(=O)NCCCC[C@H](NC(=O)C[C@H](Cc1ccccc1)NC(=O)[C@@H](CCCCN)NC(=O)[C@@H](NC(=O)[C@H](C)NC(=O)[C@@H]1CCCN1C(=O)[C@H](C)NC(=O)[C@H](Cc1c[nH]cn1)NC(=O)[C@@H](NC(=O)[C@H](CCC(=O)O)NC(=O)CC(C)C)[C@@H](C)O)[C@@H](C)CC)C(=O)N[C@H](CCCCN)C(=O)N[C@@H](C)C(N)=O
B16: Isovaleric Acid-d[Lys(Gal-T-H-[Dpa]-P-A-I-[Lys(Ahx_Palm)]-[bhPhe]-NH2 (peptide)
peptide: Isovaleryl-[dK](Gal)TH[Dip]PAIK([Ahx-Palmitoyl])[β3hF]-NH2
B17: Isovaleric Acid-E-T-H-[Dpa]-P-d[Lys(Gal)]-I-[Lys(Ahx_Palm)]-[bhPhe]-NH2 (peptide)
peptide: Isovaleryl-ETH[Dip]P[dK](Gal)IK([Ahx-Palmitoyl])[β3hF]-NH2
B18: Isovaleric Acid-E-T-H-[Dpa]-P-A-I-[Lys(Ahx_Palm)]-d[Lys(Gal-NH2 (peptide)
peptide: Isovaleryl-ETH[Dip]PAIK([Ahx-Palmitoyl])[dK](Gal)-NH2

Target: T1, human ferroportin (SLC40A1) fused in frame with GFP, stably expressed in HEK293 cells (human, UniProt Q9NP59 1-571)
T1 sequence (looked up): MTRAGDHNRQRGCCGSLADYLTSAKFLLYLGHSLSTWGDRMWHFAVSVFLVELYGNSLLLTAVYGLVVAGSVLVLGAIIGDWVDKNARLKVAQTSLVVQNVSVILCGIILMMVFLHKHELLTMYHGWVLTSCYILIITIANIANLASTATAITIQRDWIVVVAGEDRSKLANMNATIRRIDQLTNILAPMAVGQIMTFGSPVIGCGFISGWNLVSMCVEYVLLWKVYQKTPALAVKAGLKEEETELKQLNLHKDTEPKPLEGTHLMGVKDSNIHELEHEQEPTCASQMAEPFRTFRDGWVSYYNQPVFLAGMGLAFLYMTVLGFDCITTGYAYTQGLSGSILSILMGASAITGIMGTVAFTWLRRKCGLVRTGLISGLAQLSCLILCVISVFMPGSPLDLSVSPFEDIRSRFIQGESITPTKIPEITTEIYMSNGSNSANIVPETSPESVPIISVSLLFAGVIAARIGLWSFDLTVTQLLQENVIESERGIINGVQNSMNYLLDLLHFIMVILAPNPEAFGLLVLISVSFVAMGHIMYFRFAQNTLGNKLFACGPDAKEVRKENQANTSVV
Assay: cell-based or functional assay
Details: not given

Row | Molecule | IC50: FPN internalisation
1 | B1 | 10.7 nM
2 | B2 | 10.7 nM
3 | B3 | 13.6 nM
4 | B4 | 201 nM
5 | B5 | 597 nM
6 | B6 | 35.6 nM
7 | B7 | 5.41 nM
8 | B8 | 5.9 nM

Target: T1, human ferroportin (SLC40A1) fused in …
Assay: cell-based or functional assay
Details: not given
Remark: another data set of the same source

Row | Molecule | FPN IC50
9 | B9 | 654 nM
10 | B10 | 1120 nM
11 | B11 | 76 nM
12 | B12 | 126 nM
13 | B13 | 183 nM
14 | B14 | 2150 nM
15 | B15 | > 3000 nM
16 | B16 | > 3000 nM
17 | B17 | 246 nM
18 | B18 | 181 nM

Target: T2, ferroportin (Homo sapiens, UniProt Q9NP59)
T2 sequence (Q9NP59 1-571): T1 sequence (looked up)
Assay: T47D cell-based ferroportin internalization assay in presence of mouse serum albumin (MSA), AF647 detection peptide, flow cytometry
Parameters: a human breast carcinoma adherent cell line which endogenously expresses ferroportin; host or cells: T47D
Details: second Table 6D, T47D/MSA data; with mouse serum albumin
Description: The potency of the peptides in causing ferroportin internalization was evaluated in a T47D cell-based assay. […] In this internalization assay, the potency of the test peptides was evaluated in presence of serum albumin which is the main protein component in the blood. T47D cells were maintained in RPMI media (containing required amount of fetal bovine serum) and regularly sub-cultured. […] The test peptide dilution series were allowed to incubate at room temperature for 30 min. Then the media was aspirated from the 96-well cell plate and test peptide dilution series were added. After 1 hr incubation, the media with test peptides was aspirated out and A1F647-conjugated detection peptide was added at fixed concentration of 200 nM. […] The cells were washed again after a 2 hr incubation in preparation for flow cytometry analysis. The Median Fluorescence Intensity (MFI) of the AF647-positive population was measured (after removing dead cells and non-singlets from the analysis). The MFI values were used to generate a dose-response curve and obtain IC50 potencies for the test peptides. The IC50 potencies were calculated by using 4-parameter non-linear fitting function in Graphpad Prism (Table 6D).

Row | Molecule | IC50
19 | CCCCCCCCCCCCCCCC(=O)NCCCCCC(=O)NCCCC[C@H](NC(=O)[C@@H](NC(=O)[C@H](C)NC(=O)[C@@H]1CCCN1C(=O)[C@H](Cc1ccccc1)NC(=O)[C@H](Cc1c[nH]cn1)NC(=O)[C@@H](NC(=O)[C@H](CCC(=O)O)NC(=O)CC(C)C)[C@@H](C)O)[C@@H](C)CC)C(=O)N[C@@H](Cc1ccccc1)C(=O)N[C@@H](CCC(=O)O)C(=O)N1CCC[C@H]1C(=O)N[C@@H](CCCNC(=N)N)C(=O)N[C@@H](CO)C(=O)N[C@@H](CCCCN)C(=O)NCC(=O)N[C@@H](C)C(=O)N[C@@H](CCCCN)C(N)=O [compound 81] (Isovaleryl-ETHFPAIK([Ahx-Palmitoyl])FEPRSKGAK-NH2) | 11.4 nM
20 | CCCCCCCCCCCCCCCC(=O)NCCCCCC(=O)NCCCC[C@H](NC(=O)[C@@H]1CCCCNC(=O)CC[C@H](NC(=O)CC(C)C)C(=O)N[C@@H]([C@@H](C)O)C(=O)N[C@@H](Cc2c[nH]cn2)C(=O)N[C@@H](C(c2ccccc2)c2ccccc2)C(=O)N2CCC[C@H]2C(=O)N[C@@H](C)C(=O)N[C@@H]([C@@H](C)CC)C(=O)N1)C(N)=O [compound 314] (Isovaleryl-ETH[Dip]PAIKK([Ahx-Palmitoyl])-NH2; lactam 1-8) | 10.6 nM
21 | CCCCCCCCCCCCCCCC(=O)NCCCCCC(=O)NCCCC[C@H](NC(=O)C[C@H](Cc1ccccc1)NC(=O)[C@H]1CCCCNC(=O)CC[C@H](NC(=O)CC(C)C)C(=O)N[C@@H]([C@@H](C)O)C(=O)N[C@@H](Cc2c[nH]cn2)C(=O)N[C@@H](C(c2ccccc2)c2ccccc2)C(=O)N2CCC[C@H]2C(=O)N[C@@H](C)C(=O)N[C@@H]([C@@H](C)CC)C(=O)N1)C(=O)N[C@@H](CCCNC(=N)N)C(N)=O [compound 56] (Isovaleryl-ETH[Dip]PAI[dK][β3hF]K([Ahx-Palmitoyl])R-NH2; lactam 1-8) | 8.9 nM
22 | CCCCCCCCCCCCCCCC(=O)NCCCCCC(=O)NCCCC[C@H](NC(=O)[C@@H]1CCC(=O)NCCCC[C@H](NC(=O)CC(C)C)C(=O)N[C@@H]([C@@H](C)O)C(=O)N[C@@H](Cc2c[nH]cn2)C(=O)N[C@@H](C(c2ccccc2)c2ccccc2)C(=O)N2CCC[C@H]2C(=O)N[C@@H](C)C(=O)N[C@@H]([C@@H](C)CC)C(=O)N1)C(N)=O [compound 309] (Isovaleryl-KTH[Dip]PAIEK([Ahx-Palmitoyl])-NH2; lactam 1-8) | 31.2 nM
